From paper doi:10.1101/2021.03.25.436940 come the findings set out here.

This data set concerns the target T1, OsGSTU5 (Oryza sativa, UniProt Q0J294 6-233).
T1 sequence: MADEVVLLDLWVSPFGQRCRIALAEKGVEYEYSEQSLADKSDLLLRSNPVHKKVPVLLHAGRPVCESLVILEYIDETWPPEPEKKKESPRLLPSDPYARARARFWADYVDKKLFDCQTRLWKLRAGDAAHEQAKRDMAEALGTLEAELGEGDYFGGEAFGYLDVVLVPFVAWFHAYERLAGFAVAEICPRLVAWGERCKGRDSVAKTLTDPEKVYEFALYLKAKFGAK
Briefly: EMSA. For orientation: Mobility shift assays separate free from complexed probe on a gel.

B1: 39-nt experimental oligo (ssDNA) (ssDNA)
DNA: GCGGTGGAAGTAGCAACAGCGGTTCTAGCGGCAGCGGCG
As for B1, the binding result is “no binding”.
